# Source: IntAct's records for PubMed 22660580
# B1: Interleukin-1 receptor-like 1 (Mus musculus), P14719 (parent)
# chain: MIDRQRMGLWALAILTLPMYLTVTEGSKSSWGLENEALIVRCPQRGRSTYPVEWYYSDTNESIPTQKRNRIFVSRDRLKFLPARVEDSGIYACVIRSPNLNKTGYLNVTIHKKPPSCNIPDYLMYSTVRGSDKNFKITCPTIDLYNWTAPVQWFKNCKALQEPRFRAHRSYLFIDNVTHDDEGDYTCQFTHAENGTNYIVTATRSFTVEEKGFSMFPVITNPPYNHTMEVEIGKPASIACSACFGKGSHFLADVLWQINKTVVGNFGEARIQEEEGRNESSSNDMDCLTSVLRITGVTEKDLSLEYDCLALNLHGMIRHTIRLRRKQPIDHRSIYYIVAGCSLLLMFINVLVIVLKVFWIEVALFWRDIVTPYKTRNDGKLYDAYIIYPRVFRGSAAGTHSVEYFVHHTLPDVLENKCGYKLCIYGRDLLPGQDAATVVESSIQNSRRQVFVLAPHMMHSKEFAYEQEIALHSALIQNNSKVILIEMEPLGEASRLQVGDLQDSLQHLVKIQGTIKWREDHVADKQSLSSKFWKHVRYQMPVPERASKTASVAAPLSGKACLDLKHF
# partner: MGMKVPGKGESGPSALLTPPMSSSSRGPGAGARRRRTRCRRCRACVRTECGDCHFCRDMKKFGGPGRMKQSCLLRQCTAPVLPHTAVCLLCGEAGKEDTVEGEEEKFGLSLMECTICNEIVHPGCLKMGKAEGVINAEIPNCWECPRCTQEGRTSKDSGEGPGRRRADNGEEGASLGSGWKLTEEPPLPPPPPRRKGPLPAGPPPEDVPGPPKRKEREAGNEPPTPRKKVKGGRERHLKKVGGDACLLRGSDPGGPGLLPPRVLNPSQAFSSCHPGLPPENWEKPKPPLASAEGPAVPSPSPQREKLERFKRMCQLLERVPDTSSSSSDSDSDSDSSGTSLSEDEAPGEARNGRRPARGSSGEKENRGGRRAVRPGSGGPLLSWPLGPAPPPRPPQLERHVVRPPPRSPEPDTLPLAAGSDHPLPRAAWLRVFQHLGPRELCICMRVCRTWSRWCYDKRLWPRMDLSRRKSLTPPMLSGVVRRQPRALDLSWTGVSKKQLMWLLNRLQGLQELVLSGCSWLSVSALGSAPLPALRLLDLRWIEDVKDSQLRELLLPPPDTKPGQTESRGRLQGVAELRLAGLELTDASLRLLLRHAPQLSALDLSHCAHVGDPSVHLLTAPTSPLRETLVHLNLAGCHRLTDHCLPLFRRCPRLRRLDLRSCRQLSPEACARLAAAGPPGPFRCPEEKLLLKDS
# Variants of: B1
# Details: with fxl19_human FBXL19, Q6PCT2
row,Variant,effect of a mutation on the interaction
1,S442A,decreasing interaction
